Holding throughout (experiment): SPR
A general note: Surface plasmon resonance follows binding to a sensor surface in real time, without labels.

Test [1] addresses CAP210–sCD4 complex (core CAP210 gp120 with sCD4) (HIV-1 clade C CAP210.2.00.E8 gp120; …, strain).
The target of test [2] is soluble CD4 (domains 1 and 2 from human CD4) (human).
Test [3] deals with UC1_(Full-length) (V1V2-containing UC1 gp120, HIV-2) with sCD4 (HIV-2 isolate UC1 gp120; human CD4, UniProt Q76638;PDB, strain).

The term Kd denotes a measure of binding affinity in units of concentration. The low end stands for a tighter complex, the high end for a looser complex.

B1: 21c Fab (Fab, V domains shown)
VH: QVQVVQSGAEVRKPGASVKVSCKVSGFTLTGLSIHWVRQAPGKGLEWMGGFGPEENEIIYAQKFQGRVSMTEDTSTNTAYMELSSLRSEDTAVYYCATGGNYYNLWTGYYPLAYWGQGTLVTVSS
VL: QSVLTQPPSVSAAPGQKVTISCSGSSSNIGKNYVSWYQQLPGAAPKLLIFDDTQRPSGIPDRFSGSKSGTSATLAITGLQTGDEADYYCGTWDSSLSTGQLFGGGTKLTVL
As to B1, the figures for the Kd in test [1] and in test [2] were 1600 nM and above 100000 nM, respectively. Besides, in test [3], the binding result is “binds”.

Values taken from article PMC2949298 (Nature structural & molecular biology, 2010).
